In general, Kd refers to a measure of binding affinity in units of concentration. Higher therefore signals a looser complex.

From publication PMC11362013, “Mechanism for controlled assembly of transcriptional condensates by Aire” (Nature Immunology, 2024) come the findings set out here.

Assay [1] has as its target FAM-labeled H3 peptide (aa 1-21) with no modification (UniProt P68431). Nature of the assay: fluorescence polarisation; 50 nM fluorescein-labeled H3 peptide, increasing PHD (0-900 μM) in SEC Buffer (25 mM HEPES pH 7.5, 100 mM NaCl, 5 mM BME), 25 °C; simple binding isotherm. (In fluorescence polarisation assays a small probe gives low polarisation when free and higher when bound to something large.)

Assay [2] deals with FAM-labeled H3 peptide (aa 1-21) with K4me1 (UniProt P68431). The description is as above.
Assay [3] addresses T1, CBP TAZ2 (mouse, UniProt P45481 1764-1855).
T1 chain: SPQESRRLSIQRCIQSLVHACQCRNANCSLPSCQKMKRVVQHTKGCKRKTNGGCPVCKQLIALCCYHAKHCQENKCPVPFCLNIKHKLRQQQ
The assay is described as follows: ITC; two-site model, second site. (In general: In ITC the heat of successive injections is recorded.)

The target in assay [4] is T2, CBP TAZ2 (mouse, UniProt P45481 1764-1855).
T2 construct: the recombinant construct itself is described in the Supplementary Note; also called isolated CBP TAZ2; recombinant CBP TAZ2; source: E. coli, purified (details in the Supplementary Note)
T2 sequence (looked up): T1 chain
Nature of the assay: ITC; 760 μM mouse Aire CTT in the syringe, 19-76 μM TAZ2 in the cell; 20 °C; 20 mM HEPES pH 7.5, 100 mM NaCl, 1 mM dithiothreitol; two-site binding model. Conditions: both partners purified.

CHD4 PHD2 (domain or fragment): the Kd in assay [1] turned out to be 45.3 µM.
As for mouse Aire PHD1 (domain or fragment), the Kd is 5.25 µM in assay [1] and 23.2 µM in assay [2].

B1: mouse Aire CTT (aa 480-552) (domain or fragment, UniProt Q9Z0E3 480-552, looked up)
chain: TPTPGTPGEAVPTSGPRPAPGLAKVGDDSASHDPVLHRDDLESLLNEHSFDGILQWAIQSMSRPLAETPPFSS
notes: Aire (autoimmune regulator), mouse, C-terminal tail (CTT), residues 480-552; Used in NMR (15N13C-labelled) and ITC; whether tags were left on it is told only in the Supplementary Note; also called isolated CTT; source: E. coli, purified (details in the Supplementary Note)
With B1, the Kd with CBP TAZ2 [3] was 39.7 µM. In addition, in the assay with CBP TAZ2 [4], the “Kd of the high-affinity site (two-site model)” value was 0.26 µM and the “Kd of the second, low-affinity site (two-site model)” value was determined as 40 µM.
